For assay [1], the target named is full-length TcdB (TcdB1-2366), VPI10463 (Clostridioides difficile strain VPI10463, UniProt P18177 1-2366). The assay can be described thus: cell-based or functional assay.
Assay [2] has as its target full-length TcdA (TcdA1-2710) (Clostridioides difficile strain VPI10463, UniProt P16154 1-2710). The experiment in a line: cell-based or functional assay.
The next assay has as its target T1, TcdA-GTD (TcdA1-542) (Clostridioides difficile strain VPI10463, UniProt P16154 1-542).
T1 construct: range 1-542; also called TcdA glucosyltransferase domain
The assay can be described thus: ELISA-like screen of clone lysates on isolated domains. On the technique in general: ELISA stands for enzyme-linked immunosorbent assay.

T1 sequence (P16154 1-542 limits assumed): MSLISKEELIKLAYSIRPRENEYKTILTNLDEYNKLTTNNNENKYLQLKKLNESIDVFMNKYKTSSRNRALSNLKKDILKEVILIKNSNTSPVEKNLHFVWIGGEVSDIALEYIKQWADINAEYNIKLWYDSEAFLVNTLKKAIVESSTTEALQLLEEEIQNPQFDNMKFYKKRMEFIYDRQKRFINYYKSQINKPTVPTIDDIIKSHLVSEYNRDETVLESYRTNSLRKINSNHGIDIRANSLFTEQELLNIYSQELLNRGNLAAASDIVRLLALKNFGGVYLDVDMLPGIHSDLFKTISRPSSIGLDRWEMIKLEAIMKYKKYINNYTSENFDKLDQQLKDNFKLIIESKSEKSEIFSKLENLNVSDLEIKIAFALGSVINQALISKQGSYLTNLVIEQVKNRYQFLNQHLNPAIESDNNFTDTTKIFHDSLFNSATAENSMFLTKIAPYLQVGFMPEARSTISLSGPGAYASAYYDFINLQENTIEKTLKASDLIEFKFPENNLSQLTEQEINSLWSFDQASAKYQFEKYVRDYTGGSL
Sequence of full-length TcdB (TcdB1-2366), VPI10463 (P18177 whole entry): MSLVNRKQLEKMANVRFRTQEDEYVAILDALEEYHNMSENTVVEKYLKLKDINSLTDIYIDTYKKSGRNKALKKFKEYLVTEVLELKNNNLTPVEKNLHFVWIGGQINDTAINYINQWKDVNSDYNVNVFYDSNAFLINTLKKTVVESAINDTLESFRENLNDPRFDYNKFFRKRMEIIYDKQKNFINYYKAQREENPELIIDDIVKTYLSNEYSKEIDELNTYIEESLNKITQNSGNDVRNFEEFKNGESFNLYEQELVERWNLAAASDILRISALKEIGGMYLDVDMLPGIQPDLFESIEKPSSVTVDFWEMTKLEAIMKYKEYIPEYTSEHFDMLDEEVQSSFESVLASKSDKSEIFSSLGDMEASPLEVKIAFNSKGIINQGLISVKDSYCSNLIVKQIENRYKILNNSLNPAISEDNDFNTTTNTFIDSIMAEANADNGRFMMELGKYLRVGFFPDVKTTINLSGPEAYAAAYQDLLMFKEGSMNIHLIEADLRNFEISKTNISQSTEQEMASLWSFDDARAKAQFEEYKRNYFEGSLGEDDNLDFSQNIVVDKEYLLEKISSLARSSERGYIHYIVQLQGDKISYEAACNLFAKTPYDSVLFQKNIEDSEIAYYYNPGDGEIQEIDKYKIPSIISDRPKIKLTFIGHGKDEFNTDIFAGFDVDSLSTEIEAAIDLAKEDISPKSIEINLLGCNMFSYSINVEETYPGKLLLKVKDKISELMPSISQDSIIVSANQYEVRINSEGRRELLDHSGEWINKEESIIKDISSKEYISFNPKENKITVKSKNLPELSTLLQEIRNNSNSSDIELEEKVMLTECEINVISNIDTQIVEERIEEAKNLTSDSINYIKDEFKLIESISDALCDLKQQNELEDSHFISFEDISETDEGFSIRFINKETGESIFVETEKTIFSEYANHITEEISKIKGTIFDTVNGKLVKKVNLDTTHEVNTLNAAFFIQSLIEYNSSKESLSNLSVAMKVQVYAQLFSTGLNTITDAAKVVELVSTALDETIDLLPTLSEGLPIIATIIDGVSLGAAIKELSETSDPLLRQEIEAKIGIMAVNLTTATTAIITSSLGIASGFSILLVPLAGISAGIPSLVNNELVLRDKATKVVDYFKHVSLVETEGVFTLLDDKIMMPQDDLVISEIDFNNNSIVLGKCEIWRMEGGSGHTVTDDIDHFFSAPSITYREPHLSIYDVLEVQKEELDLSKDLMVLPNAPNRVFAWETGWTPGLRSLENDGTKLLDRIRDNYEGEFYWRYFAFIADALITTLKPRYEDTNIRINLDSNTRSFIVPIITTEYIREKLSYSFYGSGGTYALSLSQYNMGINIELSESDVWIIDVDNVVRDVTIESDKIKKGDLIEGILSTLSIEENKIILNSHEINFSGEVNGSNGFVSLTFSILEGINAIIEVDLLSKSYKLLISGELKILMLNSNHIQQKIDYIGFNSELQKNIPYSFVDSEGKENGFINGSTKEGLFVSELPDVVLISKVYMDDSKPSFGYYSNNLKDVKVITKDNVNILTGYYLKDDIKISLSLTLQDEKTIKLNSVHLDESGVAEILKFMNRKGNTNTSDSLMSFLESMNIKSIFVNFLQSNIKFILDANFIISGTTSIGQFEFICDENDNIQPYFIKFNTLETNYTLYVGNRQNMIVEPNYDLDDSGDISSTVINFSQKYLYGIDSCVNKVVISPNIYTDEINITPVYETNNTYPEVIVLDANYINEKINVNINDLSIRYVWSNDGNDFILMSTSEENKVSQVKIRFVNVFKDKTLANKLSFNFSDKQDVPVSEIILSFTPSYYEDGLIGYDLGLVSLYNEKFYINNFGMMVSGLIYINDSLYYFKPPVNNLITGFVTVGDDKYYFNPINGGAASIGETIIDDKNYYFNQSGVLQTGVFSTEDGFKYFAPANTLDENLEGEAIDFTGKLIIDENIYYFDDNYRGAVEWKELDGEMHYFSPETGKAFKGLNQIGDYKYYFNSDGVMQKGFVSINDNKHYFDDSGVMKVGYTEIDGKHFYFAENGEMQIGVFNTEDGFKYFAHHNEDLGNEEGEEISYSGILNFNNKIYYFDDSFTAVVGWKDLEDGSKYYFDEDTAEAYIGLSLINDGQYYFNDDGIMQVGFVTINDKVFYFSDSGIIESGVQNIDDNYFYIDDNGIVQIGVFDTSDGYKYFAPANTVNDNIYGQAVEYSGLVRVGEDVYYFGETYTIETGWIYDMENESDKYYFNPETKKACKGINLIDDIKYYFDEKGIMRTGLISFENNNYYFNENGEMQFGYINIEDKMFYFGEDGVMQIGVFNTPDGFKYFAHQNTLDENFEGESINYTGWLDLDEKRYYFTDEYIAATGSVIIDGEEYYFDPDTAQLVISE

B1: B0C10 (VHH)
VHH: QVQLQESGGGLVQPGGSLRLSCTASGFTRKHYTIGWFRQAPGKEREGVSCITTPDNSTYYKDSVKGRFTISRDNAKNTVYLQMNNVKPEDTAVYYCGASALGGSSCAQSSSVLHRLFQWGQGTQVTVSS
As to B1, in assay [1], the “EC50 (nM), TcdB neutralization, Caco-2 cells” value (from here on “EC50 (nM) … Caco-2 cells”) was less than 1 nM and the “EC50 (nM), TcdB neutralization, Vero cells” value was determined as 1.3 nM.

B2: A2B5 (VHH)
VHH: QVQLQESGGGLVQAGGSLRLSCTPSERTFSAYTMAWYRQPPGKEREFAAGIKWSGSGGITLYADSVKGRFTISGDNAKSTVYLEMNSLKPEDTAVYYCTAGPTVYNPHYWGQGTQVTVSS
B2: the “EC50 (nM), TcdA neutralization, Vero cells” value in assay [2] worked out at 11.1 nM. For the same molecule, the binding result with TcdA-GTD (TcdA1-542) was “no binding”.

B3: B1E7 (VHH)
VHH: QVQLQESGGGLVQPGGSLRLSCAASGSLRSGYVMSWHRQAPGKQRELVASITTGDITQYGASVKGRFTISRDETKNMGWLQMNSLLPEDTAVYYCKITELPTVSVYWGQGTQVTVSS
For the molecule B3, the “EC50 (nM), TcdB neutralization, Vero cells” value in assay [1] was 10 nM.

B4: A2B10 (VHH)
VHH: QVQLQESGGGTVQPGGSLRLSCAASGRDFSSGAMGWFRQTPGNEREFVGVGWSGGLIDYSDSVKGRFTITRDKLKNEVYLRMDRLKPEDTAVYFCAVNSANSCAGYDCHDKPQTYNYWGQGTQVTVSS
Regarding B4, the “EC50 (nM), TcdA neutralization, T84 cells” value (shortened to “EC50 (nM) … T84 cells”) in assay [2] was determined as 678 nM.

B5: B0E2 (VHH)
VHH: QVQLQESGGGLVLPGGSLRLSCAASGTVFKIYVMGWYRQAPGKQRELVATISNGGTPNYADSVKGRFTISGDRAKNTVFLQMSSLNVEDTAVYYCNRRQLEGRQSEDYWGQGTQVTVSS
As for B5, in assay [1], the “EC50 (nM) … Caco-2 cells” value is less than 1 nM and the “EC50 (nM), TcdB neutralization, Vero cells” value is 28 nM.

B6: A1H5 (VHH)
VHH: QVQLQESGGGLVQPGGSLRLSCAASGSIFSINAMGWYRQAPGKQRELVASITSGGSTNYADSVKGRFTISRDGAKNTVYLQMNSLKPEDTAVYYCHVPWTDDFGWAVKDYWGQGTQVTVSS
B6: in assay [2], the “EC50 (nM), TcdA neutralization, Vero cells” value worked out at 15.7 nM. Further, the binding result in the assay with TcdA-GTD (TcdA1-542) was “no binding”.

B7: A2H4 (VHH)
VHH: QVQLQESGGGLVQPGGSLRLSCAASGSIFSINAMGWYRQAPGKQRELVAKITSGGTTNYADSVKGRFTISRDGAKNTVYLQMNSLKPEDTAVYYCNLPWTSDLGWAVKDYWGQGTQVTVSS
In the case of B7, in assay [2], the “EC50 (nM) … T84 cells” value worked out at 838 nM and the “EC50 (nM), TcdA neutralization, Vero cells” value was determined as 40.9 nM. For the same molecule, in the assay with TcdA-GTD (TcdA1-542), the binding result is recorded as “no binding”.

B8: B1C10 (VHH)
VHH: QVQLQESGGGLVQPGGSLRLSCLASGLSLSTDVMSWFRQAPGKERELVAGIRSAGWITNYADSVKGRFTISVDSAKNTVYLQMNSLKPEDTAVYYCKVLRLPDGLAFWGQGTQVTVSS
Take B8: the “EC50 (nM), TcdB neutralization, Vero cells” value in assay [1] came out at 2.2 nM.

B9: A2A8 (VHH)
VHH: QVQLQESGGGLVQAGDSLRLSCTASGGTFSSYSIGWFRQAPGLEREFVALITWRNNTYLGDSVRERFAISRDNAKNTVYLQMNSLKPEDTAVYSCAARERRVARIQEFDYWGQGTQVTVSS
Regarding B9, in assay [2], the “EC50, TcdA neutralization, T84 cells” value is more than 10000 nM.

B10: A2A6 (VHH)
VHH: QVQLQESGGGLVQAGGSLRLSCADSGRTFSRYEMGWSRQAPGKEREFVAVINRLGRSTYYADSVKGRFTISRDNAKNTVYLQMNSLKPEDTAVYYCAAGVRLNLPQIPDVIDFWGQGTQVTVSS
Turning to B10, in assay [2], the “EC50 (nM) … T84 cells” value came out at 91 nM and the “EC50 (nM), TcdA neutralization, Vero cells” value came out at 1 nM. Besides, in the assay with TcdA-GTD (TcdA1-542), the binding result is on record as “no binding”.

B11: B2C11 (VHH)
VHH: QVQLQESGGGLVHVGESLTLSCVAPGSIFGVNTMAWYRQAPGKQRELVAAISPGGYTNYAEFVKGRFGISRDKAKNTVYLQMNDLKPEDTAVYYCNYRSGTSRPNTNWGQGTQVTVSS
B11: in assay [1], the “EC50 (nM), TcdB neutralization, Vero cells” value was less than 1 nM.

B12: A1C1 (VHH)
VHH: QVQLQESGGGLVQAGGSLRLSCAASGGTFSSYSVGWFRQAPGLEREFVGMITWRGITYFEDFVKDRFNISRDNAKNTVYLQMNSLKPEDTAVYSCAARDRRAARIQEFDYWGQGTQVTVSS
For B12, the “EC50, TcdA neutralization, T84 cells” value in assay [2] was more than 10000 nM.

B13: A1C11 (VHH)
VHH: QVQLQESGGGLVQAGDSLRLSCAASGRTFSRYAMGWFRQAPGKEREFVAAISWSGGTTYYADSVKGRFTISRDNAKNTVYLQMNSLKPEDTAVYYCAAGLFRGDLTRFKLDEYDYRGQGTQVTVSS
For B13, in assay [2], the “EC50 (nM) … T84 cells” value came to 10.4 nM and the “EC50 (nM), TcdA neutralization, Vero cells” value is less than 1 nM. In the assay with TcdA-GTD (TcdA1-542), the binding result is “no binding”.

B14: A2C2 (VHH)
VHH: QVQLQESGGGLVQTGGSLRLSCTASGRTFSRYAMGWFRQASGKEREFVAAISYSGGTTYYSDSVKGRFTISRDNAKSTVSLQMNSLKPEDTAVYYCAAGLFRGDLTRFTLDEYDYRGQGTQVTVSS
As to B14, in assay [2], the “EC50 (nM) … T84 cells” value stood at 2.4 nM and the “EC50 (nM), TcdA neutralization, Vero cells” value was less than 1 nM. In the assay with TcdA-GTD (TcdA1-542), the binding result was “no binding”.

B15: A1D8 (VHH)
VHH: QVQLQESGGGLVQAGGSLRLSCVASGGTFSRYALGWFRQAPGKEREFVAAISYSGATTYYADSVKGRFTISRDNAKNTVFLQMNSLKPEDTAVYYCAAGFFRGDLTKFKLDEYDYRGQGTQVTVSS
On to B15, for which, in assay [2], the “EC50 (nM) … T84 cells” value stood at 2.1 nM and the “EC50 (nM), TcdA neutralization, Vero cells” value is less than 1 nM. Besides, in the assay with TcdA-GTD (TcdA1-542), the binding result is listed as “no binding”.

B16: A2F12 (VHH)
VHH: QVQLQESGGGLVQAGGSLRLSCAASGRTFSRYAMGWFRQAPGKEREFVAAISWSGDTTYDADSVKGRFTVSRDNAKNTVYLQMNSLKPEDTAVYYCAAGLFRGDLTKFELDEYDYRGQGTQVTVSS
As for B16, in assay [2], the “EC50 (nM) … T84 cells” value worked out at 1.1 nM and the “EC50 (nM), TcdA neutralization, Vero cells” value was less than 1 nM. Further, the binding result with TcdA-GTD (TcdA1-542) is reported as “no binding”.

B17: A1H1 (VHH)
VHH: QVQLQESGGGLVQAGGSLRLSCAASGGTFSKTSVGWFRQAPGLEREFVALITWSGNTYFVDSVRERFAISRDNAENTVYLQMNSLEPEDTAVYYCAARERTAARIQEFDYWGQGTQVTVSS
B17: the “EC50, TcdA neutralization, T84 cells” value in assay [2] is more than 10000 nM.

B18: B0A9 (VHH)
VHH: QVQLQESGGGLVQPGGSLRLTCTSSTSINIYPYMGWYRQAPGKQRERVATVNRDGNTNYLDSVKGRFTITRDDAKKTICLQMNNLEPEDTAVYYCNNFGSSSWGQGTQVTVSS
In the case of B18, in assay [1], the “EC50 (nM) … Caco-2 cells” value worked out at 1.3 nM and the “EC50 (nM), TcdB neutralization, Vero cells” value was found to be 12.9 nM.

B19: A2F10 (VHH)
VHH: QVQLQESGGGLVQPGGSLRLSCAASGRSFSSGAMGWFRQAPGKEREFVGVGWSGGLIDYAASVRGRFTITRDKAKNTVYLRMDSLRPEDTAVYYCAINSANSCAGYDCHDKPQVYDYWGQGTQVTVSS
B19: the “EC50 (nM) … T84 cells” value in assay [2] was found to be 455 nM.

B20: A1C4 (VHH)
VHH: QVQLQESGGGLVQPGGSLRLSCAASGRSFSINTMGWYRQAPGNKRDMVATITTGGNTNYADSVKGRFTISRDNAKNTVYLQMNSLKPEDTAVYYCRTVVVTPYPDEFEYDYWGQGTQVTVSS
Consider B20, for which, in assay [2], the “EC50 (nM) … T84 cells” value stood at 60.3 nM and the “EC50 (nM), TcdA neutralization, Vero cells” value was found to be 2.5 nM. In addition, the binding result with TcdA-GTD (TcdA1-542) is “no binding”.

B21: B2C5 (VHH)
VHH: QVQLQESGGGLVQPGGSLRLSCAASGLTSGTYVMSWFRQAPGKEREFVAAIRDAGGIRNYADSVKGRFTISRDAAKNMIFLQMNSLKPEDTAVYYCKFLRLPESLAYWGQGTQVTVSS
As for B21, the “EC50 (nM), TcdB neutralization, Vero cells” value in assay [1] was less than 1 nM.

B22: A1D1 (VHH)
VHH: QVQLQESGGGLVQAGGSLRLSCAASGRTFSTHTMAWFRQAPGKEREFVTGIRWSDGMTIYADSVKGRFTISRDKATNTMYLEMNTLKPDDTAVYYCGAGPTMYHPTYWGQGTQVTVSS
As to B22, the binding result with TcdA-GTD (TcdA1-542) is given as “no binding”.

B23: A1G6 (VHH)
VHH: QVQLQESGGGLVQPGGSLRLSCAASGRAFSSYAMGWFRQTPGKEREFVAVISWSGGSTYYADSVKGRFTISRDNTKNMVYLQMMSLKPEDTAVYYCAADFSQPLLATVPDDYDYWGQGTQVTVSS
Turning to B23, the “EC50 (nM), TcdA neutralization, Vero cells” value in assay [2] was determined as 6.4 nM. In addition, in the assay with TcdA-GTD (TcdA1-542), the binding result was “no binding”.

B24: B0B11 (VHH)
VHH: QVQLQESGGGLVQPGGSLRLSCATSGFYFPNYAMSWHRQAPGQERELVARITSAGGSTDYADSVKGRFTISRDNSKNTVYLQMNGLISEDTAVYYCNADPSYGTRYWGQGTQVTVSS
Consider B24, for which, in assay [1], the “EC50 (nM) … Caco-2 cells” value worked out at 161 nM and the “EC50 (nM), TcdB neutralization, Vero cells” value was determined as 350 nM.

B25: B0D11 (VHH)
VHH: QVQLQESGGGLAQPGGSLRLSCAASGFTFSHAVMSWFRQAPGKERELVAGWRSAGGITNYADSVKGRFTISGDNAKDVVYLQMNSLKPEDTAVYYCKAFVVGSAYWGQGTQVTVSS
Regarding B25, in assay [1], the “EC50 (nM) … Caco-2 cells” value came out at 111 nM and the “EC50 (nM), TcdB neutralization, Vero cells” value is 176 nM.

B26: B0B7 (VHH)
VHH: QVQLQESGGGSVQPGGSLRLSCAASGSIYGMMMMAWYRQRTGEQRELVANFTRDGSTNYVDSVKGRFTISRDNDKKMVYLQMKDLKPEDTAVYYCNIQRYWGKGTAVTVSS
For B26, in assay [1], the “EC50 (nM), TcdB neutralization, Vero cells” value was less than 1 nM.

Values taken from patent US20250179155A1 (VANDERBILT UNIVERSITY, published 2025).
